Here are results for two substances from patent US20070160987A1.

In the experiment the target is endogenous human CXC chemokine receptor subtype 3 (CXCR3) (human) (UniProt P49682). The experiment is described as follows: cell-based or functional assay.
Chain of UniProt P49682 (P49682 whole entry): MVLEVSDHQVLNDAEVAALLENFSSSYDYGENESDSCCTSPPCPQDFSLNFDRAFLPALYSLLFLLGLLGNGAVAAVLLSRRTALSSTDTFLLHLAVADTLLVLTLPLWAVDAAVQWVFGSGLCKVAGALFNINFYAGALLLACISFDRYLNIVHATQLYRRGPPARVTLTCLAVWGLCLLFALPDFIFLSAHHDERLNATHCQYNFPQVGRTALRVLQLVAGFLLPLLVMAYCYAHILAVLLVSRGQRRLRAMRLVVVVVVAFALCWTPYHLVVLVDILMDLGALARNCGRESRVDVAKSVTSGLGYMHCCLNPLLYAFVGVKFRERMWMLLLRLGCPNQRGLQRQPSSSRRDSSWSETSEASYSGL

“monokine inducible γ-interferon (Mig) (from UniProt Q07325 23-125) (ligand)” gave an EC50, pigment aggregation in pre-dispersed (MSH-treated) melanophores transfected with the receptor of 0.29 nM.

Turning to “γ-interferon inducible protein-10 (IP-10) (from UniProt P02778 22-98) (ligand)”, the EC50, pigment aggregation in pre-dispersed (MSH-treated) melanophores transfected with the receptor is 0.15 nM.
